Entries after “also recorded” stand apart in the source; their conditions may differ.
Test system: mouse bone marrow mesenchymal stem cell line (MSC-1 cells), PDGFRα-positive
Experiment: Migration assay (Boyden / 48-well chemotaxis chamber) on bone marrow mesenchymal stem cell line MSC-1
Type: cell-based
Experimental: Cells of a mouse bone marrow mesenchymal stem cell line (MSC-1 cells, established by Tamai et al. of Osaka University (PDGFRα-positive cells in bone marrow are mobilized by high mobility group box 1 (HMGB1) to regenerate injured epithelia. (Tamai et al., Proc Natl Acad Sci USA. Apr. 4, 2011))) were detached from dishes using trypsin, and collected by centrifugation at 1200 rpm and 4° C. for 10 minutes. The resulting pellet was loosened and suspended at a cell concentration of 2.0×10^6 to 3.0×10^6 cells/ml by adding Dulbecco's Modified Eagle Medium (D-MEM) containing 10% fetal bovine serum (FBS). The recombinant protein and peptides produced in HEK293 were diluted with D-MEM containing 10% FBS. The negative control used was phosphate buffered saline (PBS). An acrylic Boyden chamber was used; cells of the mouse bone marrow mesenchymal stem cell line prepared at a cell concentration of 3×10^6 cells/ml were placed in its upper layer, while a diluted protein or peptide is added to the bottom layer. More specifically, a 28 μl aliquot of a protein or peptide solution was added to each well of the bottom plate of a 48-well chemotaxis chamber (NEURO PROBE 48WELL CHEMOTAXIS CHAMBER), and a polycarbonate membrane with 8 μm pores (Neuro Probe, Inc, Cat: 866-417-0014) was placed on the bottom plate. Then, an upper plate was placed on the membrane and screwed tightly. 50 μl of cells of the mouse bone marrow mesenchymal stem cell line after concentration adjustment were added to the upper plate wells. The chamber was placed in an incubator under 5% CO2 at 37° C. After four hours, the membrane was removed from the chamber and stained with Diff-Quik (Sysmex, Cat: 16920) to detect cells that migrated through membrane pores to the lower compartment.
The peptides listed below were custom synthesized using the solid phase method by Medical & Biological Laboratories (MBL). The peptides were synthesized based on the mouse HMGB1 sequence (SEQ ID NO: 3). Synthetic peptides described in subsequent Examples were also prepared based on the mouse HMGB1 sequence. • A synthetic peptide consisting of the amino acid sequence from positions 1 to 10 of HMGB1 (1-10); • a synthetic peptide consisting of the amino acid sequence from positions 1 to 34 of HMGB1 (1-34); • a synthetic peptide consisting of the amino acid sequence from positions 37 to 62 of HMGB1 (37-62); • a synthetic peptide consisting of the amino acid sequence from positions 27 to 62 of HMGB1 (27-62); • a synthetic peptide consisting of the amino acid sequence from positions 56 to 72 of HMGB1 (56-72); • a synthetic peptide consisting of the amino acid sequence from positions 11 to 20 of HMGB1 (11-20); • a synthetic peptide consisting of the amino acid sequence from positions 11 to 25 of HMGB1 (11-25); • a synthetic peptide consisting of the amino acid sequence from positions 11 to 30 of HMGB1 (11-30); • a synthetic peptide consisting of the amino acid sequence from positions 11 to 34 of HMGB1 (11-34); • a synthetic peptide consisting of the amino acid sequence from positions 11 to 44 of HMGB1 (11-44); • a synthetic peptide consisting of the amino acid sequence from positions 17 to 44 of HMGB1 (17-44); • a synthetic peptide consisting of the amino acid sequence from positions 1 to 25 of HMGB1 (1-25); and the whole mouse HMGB1 produced in HEK293 (1-215(HEK)) as a positive control were adjusted to 100 μg/ml and placed in the lower layer of a chemotaxis chamber to assess the migration-promoting activity on bone marrow mesenchymal stem cell line (MSC-1). Results
As positive controls, centrifuged supernatant of the skin of a one-day-old mouse (one individual) incubated in PBS at 4° C. for 12 hours, and the whole mouse HMGB1 (HMGB1(HEK_1-215)) produced in HEK293 were used. […]

[1] = human HMGB1 fragments 2-215, 2-205, 2-195, 2-185 produced in E. coli, 2 μM, FIG. 21A
[2] = human HMGB1 fragments produced in E. coli, 2 μM, FIG. 18B
[3] = human HMGB1 fragments 89-215, 89-205, 89-195, 89-185 and their Q column fractions, E. coli, 2 μM, FIGS. 19B and 19D
[4] = protein and peptides produced using HEK293 (mouse HMGB1), 50 μg/ml, 4 h, FIG. 2A
[5] = peptides produced using HEK293, 5, 15 and 25 μg/ml, FIG. 3

B1: 2-185: human HMGB1 fragment, amino acids of positions 2 to 185, produced in E. coli (protein, UniProt P09429 2-185, looked up, fragment)
chain: GKGDPKKPRGKMSSYAFFVQTCREEHKKKHPDASVNFSEFSKKCSERWKTMSAKEKGKFEDMAKADKARYEREMKTYIPPKGETKKKFKDPNAPKRPPSAFFLFCSEYRPKIKGEHPGLSIGDVAKKLGEMWNNTAADDKQPYEKKAAKLKEKYEKDIAAYRAKGKPDAAKKGVVKAEKSKKKK
With B1 the migration-promoting activity [1] was “stronger migration-promoting activity than fragments 2-215 and 2-205”.

B2: 2-62: human HMGB1 fragment, positions 2 to 62, produced in E. coli (protein, UniProt P09429 2-62, looked up, fragment)
chain: GKGDPKKPRGKMSSYAFFVQTCREEHKKKHPDASVNFSEFSKKCSERWKTMSAKEKGKFED
For B2, the migration-promoting activity [2] was “showed migration-promoting activity on bone marrow mesenchymal stem cells”.

B3: 2-215: human HMGB1 positions 2 to 215 produced in E. coli, nearly the full length, positive control (protein, UniProt P09429 2-215, looked up, fragment)
chain: GKGDPKKPRGKMSSYAFFVQTCREEHKKKHPDASVNFSEFSKKCSERWKTMSAKEKGKFEDMAKADKARYEREMKTYIPPKGETKKKFKDPNAPKRPPSAFFLFCSEYRPKIKGEHPGLSIGDVAKKLGEMWNNTAADDKQPYEKKAAKLKEKYEKDIAAYRAKGKPDAAKKGVVKAEKSKKKKEEEEDEEDEEDEEEEEDEEDEDEEEDDDDE
With B3 the migration-promoting activity [2] was “showed migration-promoting activity on bone marrow mesenchymal stem cells”.

B4: 1-62: peptide comprising the amino acid sequence of positions 1 to 62, produced using HEK293 (protein, UniProt P63158 1-62, looked up, fragment)
chain: MGKGDPKKPRGKMSSYAFFVQTCREEHKKKHPDASVNFSEFSKKCSERWKTMSAKEKGKFED
With B4 the “activity of promoting the migration of MSC-1” value (peptides produced using HEK293, concentration not stated) was “showed the activity of promoting the migration of bone marrow mesenchymal stem line MSC-1”.

B5: 89-205: human HMGB1 fragment, positions 89 to 205, produced in E. coli (protein, UniProt P09429 89-205, looked up, fragment)
chain: FKDPNAPKRPPSAFFLFCSEYRPKIKGEHPGLSIGDVAKKLGEMWNNTAADDKQPYEKKAAKLKEKYEKDIAAYRAKGKPDAAKKGVVKAEKSKKKKEEEEDEEDEEDEEEEEDEED
In the case of B5, the migration-promoting activity [3] is reported as “weak migration-promoting activity”.

B6: 89-215: human HMGB1 fragment, positions 89 to 215, produced in E. coli (protein, UniProt P09429 89-215, looked up, fragment)
chain: FKDPNAPKRPPSAFFLFCSEYRPKIKGEHPGLSIGDVAKKLGEMWNNTAADDKQPYEKKAAKLKEKYEKDIAAYRAKGKPDAAKKGVVKAEKSKKKKEEEEDEEDEEDEEEEEDEEDEDEEEDDDDE
For B6, the migration-promoting activity [3] was “weak migration-promoting activity”.

B7: 85-169: peptide of positions 85 to 169 of mouse HMGB1, produced using HEK293 (protein, UniProt P63158 85-169, looked up, fragment)
chain: TKKKFKDPNAPKRPPSAFFLFCSEYRPKIKGEHPGLSIGDVAKKLGEMWNNTAADDKQPYEKKAAKLKEKYEKDIAAYRAKGKPD
With B7 the migration-promoting activity [4] was “did not show detectable migration-promoting activity”.

B8: 45-215: peptide of positions 45 to 215 of HMGB1, produced using HEK293 (protein, UniProt P09429 45-215, looked up, fragment)
chain: CSERWKTMSAKEKGKFEDMAKADKARYEREMKTYIPPKGETKKKFKDPNAPKRPPSAFFLFCSEYRPKIKGEHPGLSIGDVAKKLGEMWNNTAADDKQPYEKKAAKLKEKYEKDIAAYRAKGKPDAAKKGVVKAEKSKKKKEEEEDEEDEEDEEEEEDEEDEDEEEDDDDE
In the case of B8, the migration-promoting activity [5] is reported as “exhibited migration-promoting activity in a concentration-dependent manner; also recorded: stronger as compared to 63-215”.

B9: 2-81: human HMGB1 fragment, positions 2 to 81, produced in E. coli (protein, UniProt P09429 2-81, looked up, fragment)
chain: GKGDPKKPRGKMSSYAFFVQTCREEHKKKHPDASVNFSEFSKKCSERWKTMSAKEKGKFEDMAKADKARYEREMKTYIPP
In the case of B9, the migration-promoting activity [2] is reported as “showed migration-promoting activity on bone marrow mesenchymal stem cells”.

B10: 2-70: human HMGB1 fragment, positions 2 to 70, produced in E. coli (protein, UniProt P09429 2-70, looked up, fragment)
chain: GKGDPKKPRGKMSSYAFFVQTCREEHKKKHPDASVNFSEFSKKCSERWKTMSAKEKGKFEDMAKADKAR
For B10, the migration-promoting activity [2] was “showed migration-promoting activity on bone marrow mesenchymal stem cells”.

B11: 63-215: peptide of positions 63 to 215 of HMGB1, produced using HEK293 (protein, UniProt P63158 63-215, looked up, fragment)
chain: MAKADKARYEREMKTYIPPKGETKKKFKDPNAPKRPPSAFFLFCSEYRPKIKGEHPGLSIGDVAKKLGEMWNNTAADDKQPYEKKAAKLKEKYEKDIAAYRAKGKPDAAKKGVVKAEKSKKKKEEEDDEEDEEDEEEEEEEEDEDEEEDDDDE
B11 was tested, and the migration-promoting activity [5] was “exhibited migration-promoting activity in a concentration-dependent manner”.

B12: 93-215: human HMGB1 fragment, positions 93 to 215, produced in E. coli (protein, UniProt P09429 93-215, looked up, fragment)
chain: NAPKRPPSAFFLFCSEYRPKIKGEHPGLSIGDVAKKLGEMWNNTAADDKQPYEKKAAKLKEKYEKDIAAYRAKGKPDAAKKGVVKAEKSKKKKEEEEDEEDEEDEEEEEDEEDEDEEEDDDDE
For B12, the migration-promoting activity [2] was “showed migration-promoting activity on bone marrow mesenchymal stem cells”.

B13: 2-195: human HMGB1 fragment, amino acids of positions 2 to 195, produced in E. coli (protein, UniProt P09429 2-195, looked up, fragment)
chain: GKGDPKKPRGKMSSYAFFVQTCREEHKKKHPDASVNFSEFSKKCSERWKTMSAKEKGKFEDMAKADKARYEREMKTYIPPKGETKKKFKDPNAPKRPPSAFFLFCSEYRPKIKGEHPGLSIGDVAKKLGEMWNNTAADDKQPYEKKAAKLKEKYEKDIAAYRAKGKPDAAKKGVVKAEKSKKKKEEEEDEEDEE
In the case of B13, the migration-promoting activity [1] is reported as “stronger migration-promoting activity than fragments 2-215 and 2-205”.

B14: 1-84: peptide of positions 1 to 84 of mouse HMGB1, produced using HEK293 (protein, UniProt P63158 1-84, looked up, fragment)
chain: MGKGDPKKPRGKMSSYAFFVQTCREEHKKKHPDASVNFSEFSKKCSERWKTMSAKEKGKFEDMAKADKARYEREMKTYIPPKGE
In the case of B14, the migration-promoting activity [4] is reported as “showed migration-promoting activity”.

B15: 2-170: human HMGB1 fragment, positions 2 to 170, produced in E. coli (protein, UniProt P09429 2-170, looked up, fragment)
chain: GKGDPKKPRGKMSSYAFFVQTCREEHKKKHPDASVNFSEFSKKCSERWKTMSAKEKGKFEDMAKADKARYEREMKTYIPPKGETKKKFKDPNAPKRPPSAFFLFCSEYRPKIKGEHPGLSIGDVAKKLGEMWNNTAADDKQPYEKKAAKLKEKYEKDIAAYRAKGKPDA
With B15 the migration-promoting activity [2] was “showed migration-promoting activity on bone marrow mesenchymal stem cells”.

From US10550165B2, “Peptide for inducing regeneration of tissue and use thereof” (STEMRIM INC., priority 2011, dated 2020)
